Molecules are shown by their SMILES. Non-standard residues stand in square brackets, D forms with d. Residues, ends and D or L forms follow the SMILES beside them. *: point of attachment. DOTA = O=C(O)CN1CCN(CC(=O)O)CCN(CC(=O)*)CCN(CC(=O)O)CC1; Nspe = C[C@H](NCC(=O)O)c1ccccc1; Nphe = O=C(O)CNCc1ccccc1; Nlys = NCCCCNCC(=O)O

Data set [1] in a line: hydrophobicity by reverse phase analytical HPLC. It counts as physicochemical. The note with it: retention time in reverse phase HPLC column (C18, 55 °C).
For data set [2] the following is noted: tail vein injection, 0.25-24 h.
Another data set in a line: in vivo. Conditions: Balb/c, mouse, total radioactivity.

In the case of `NCCCCN(CC(=O)N(CC(=O)N(CC(=O)N(CCCCN)CC(=O)N(CC(=O)N(CC(=O)N(CCCCN)CC(=O)N(CC(=O)N(CC(=O)N(CCCCN)CC(=O)N(CC(=O)N(CC(N)=O)Cc1ccccc1)Cc1ccccc1)Cc1ccccc1)Cc1ccccc1)Cc1ccccc1)Cc1ccccc1)Cc1ccccc1)Cc1ccccc1)C(=O)CN1CCN(CC(=O)O)CCN(CC(=O)O)CCN(CC(=O)O)CC1` [Compound 2] ({DOTA}-[Nlys][Nphe][Nphe][Nlys][Nphe][Nphe][Nlys][Nphe][Nphe][Nlys][Nphe][Nphe]-NH2), the “hydrophobicity (tR in minutes)” value in data set [1] turned out to be 24.1 min.

As for `C[C@@H](c1ccccc1)N(CC(N)=O)C(=O)CN(CCCCN)C(=O)CN(C(=O)CN(C(=O)CN(CCCCN)C(=O)CN(C(=O)CN(C(=O)CN(CCCCN)C(=O)CN(C(=O)CN(C(=O)CN(CCCCN)C(=O)CN1CCN(CC(=O)O)CCN(CC(=O)O)CCN(CC(=O)O)CC1)[C@@H](C)c1ccccc1)[C@@H](C)c1ccccc1)[C@@H](C)c1ccccc1)[C@@H](C)c1ccccc1)[C@@H](C)c1ccccc1)[C@@H](C)c1ccccc1` [Compound 3] ({DOTA}-[Nlys][Nspe][Nspe][Nlys][Nspe][Nspe][Nlys][Nspe][Nspe][Nlys][Nspe]-NH2), the “hydrophobicity (tR in minutes)” value in data set [1] came to 23.9 min.

What is called tissue uptake is the share of the injected amount in each gram of the tissue. Turning to `C[C@@H](c1ccccc1)N(CC(N)=O)C(=O)CN(C(=O)CN(CCCCN)C(=O)CN(C(=O)CN(C(=O)CN(CCCCN)C(=O)CN(C(=O)CN(C(=O)CN(CCCCN)C(=O)CN(C(=O)CN(C(=O)CN(CCCCN)C(=O)CN1CCN(CC(=O)O)CCN(CC(=O)O)CCN(CC(=O)O)CC1)[C@@H](C)c1ccccc1)[C@@H](C)c1ccccc1)[C@@H](C)c1ccccc1)[C@@H](C)c1ccccc1)[C@@H](C)c1ccccc1)[C@@H](C)c1ccccc1)[C@@H](C)c1ccccc1` [^64Cu-1, metal not drawn] ({DOTA}-[Nlys][Nspe][Nspe][Nlys][Nspe][Nspe][Nlys][Nspe][Nspe][Nlys][Nspe][Nspe]-NH2), in data set [2], the “excretion route, kidney activity and clearance seen by PET” value (from here on “excretion route”) is given as “main excretion route is likely hepatic”. Besides, the tissue uptake at 2 h was determined as 14.4 ± 0.9 %ID/g in “in vivo” (kidney, iv); 138 ± 13.4 %ID/g in “in vivo” (liver, iv); 4.82 ± 1.44 %ID/g in “in vivo” (stomach, po). Moreover, the tissue uptake at 24 h amounted to 95.6 ± 10.5 %ID/g in the data set “in vivo” (liver, iv) and 0.54 ± 0.22 %ID/g in “in vivo” (stomach, po).

With `NCCCCN(CC(=O)N(CC(=O)N(CC(=O)N(CCCCN)CC(=O)N(CC(=O)N(CC(=O)N(CCCCN)CC(=O)N(CC(=O)N(CC(=O)N(CCCCN)CC(=O)N(CC(=O)N(CC(N)=O)Cc1ccccc1)Cc1ccccc1)Cc1ccccc1)Cc1ccccc1)Cc1ccccc1)Cc1ccccc1)Cc1ccccc1)Cc1ccccc1)C(=O)CN1CCN(CC(=O)O)CCN(CC(=O)O)CCN(CC(=O)O)CC1` [^64Cu-2, metal not drawn] ({DOTA}-[Nlys][Nphe][Nphe][Nlys][Nphe][Nphe][Nlys][Nphe][Nphe][Nlys][Nphe][Nphe]-NH2), the “excretion route” value in data set [2] is “main excretion route is likely hepatic”. In addition, the tissue uptake at 2 h in “in vivo” (kidney, iv) was 12.6 ± 2.3 %ID/g. In addition, in “in vivo” (liver, iv), the tissue uptake at 2 h worked out at 125 ± 16.8 %ID/g and the tissue uptake at 24 h is 72.2 ± 11.3 %ID/g.

`C[C@@H](c1ccccc1)N(CC(N)=O)C(=O)CN(CCCCN)C(=O)CN(C(=O)CN(C(=O)CN(CCCCN)C(=O)CN(C(=O)CN(C(=O)CN(CCCCN)C(=O)CN(C(=O)CN(C(=O)CN(CCCCN)C(=O)CN1CCN(CC(=O)O)CCN(CC(=O)O)CCN(CC(=O)O)CC1)[C@@H](C)c1ccccc1)[C@@H](C)c1ccccc1)[C@@H](C)c1ccccc1)[C@@H](C)c1ccccc1)[C@@H](C)c1ccccc1)[C@@H](C)c1ccccc1` [^64Cu-3, metal not drawn] ({DOTA}-[Nlys][Nspe][Nspe][Nlys][Nspe][Nspe][Nlys][Nspe][Nspe][Nlys][Nspe]-NH2): the “oral absorption / bioavailability” value (administered orally) is given as “poor bioavailability”. In addition, where the note is “intravenous”, the “lower liver uptake relative to ^64Cu-1” value is “more than 50%”. Also, in data set [2], the “excretion route” value was “highest kidney activity of all three peptoids”. Moreover, the tissue uptake at 2 h in “in vivo” (kidney, iv) is approximately 31.2 %ID/g; in “in vivo” (liver, iv) it was 56.7 ± 1.8 %ID/g. The tissue uptake at 24 h was 19.3 ± 2.6 %ID/g in “in vivo” (kidney, iv) and 47.3 ± 4.4 %ID/g in “in vivo” (liver, iv).

For the origin of these results see article PMC3410980 (Bioconjugate chemistry, 2012).
